# Key:
# Test in all cases: cell-based or functional assay
# [1] = molecular target: HIV-1 Env of Q769.d22 (HIV-1)
# [2] = molecular target: HIV-1 Env of DU172.17 (HIV-1)
# [3] = molecular target: HIV-1 Env of TH976.17 (HIV-1)
# [4] = molecular target: HIV-1 Env of CAP210.E8 (HIV-1)
# [5] = molecular target: HIV-1 Env of ZM233.6 (HIV-1)
# [6] = molecular target: HIV-1 Env of Q23.17 (HIV-1)
# [7] = molecular target: HIV-1 Env of Q259.d2.17 (HIV-1)
# [8] = molecular target: HIV-1 Env of CAP256.SU (HIV-1)
# [9] = molecular target: HIV-1 Env of ZM109.4 (HIV-1)
# [10] = molecular target: HIV-1 Env of 3016.V5.c36 (HIV-1)
# [11] = molecular target: HIV-1 Env of KER2008.12 (HIV-1)
# [12] = molecular target: HIV-1 Env of AC10.29 (HIV-1)
# [13] = molecular target: HIV-1 Env of DU156.12 (HIV-1)
# [14] = molecular target: HIV-1 Env of REJO.67 (HIV-1)
# [15] = molecular target: HIV-1 Env of 6535.3 (HIV-1)
# [16] = molecular target: HIV-1 Env of QH0692.42 (HIV-1)
# [17] = molecular target: HIV-1 Env of CAP45.G3 (HIV-1)
# [18] = molecular target: HIV-1 Env of Q842.d12 (HIV-1)
# [19] = molecular target: HIV-1 Env of ZM197.7 (HIV-1)
# [20] = molecular target: HIV-1 Env of C1080.c3 (HIV-1)
# [21] = molecular target: HIV-1 Env of MB539.2B7 (HIV-1)
# [22] = molecular target: HIV-1 Env of ZM214.15 (HIV-1)
# [23] = molecular target: HIV-1 Env of DU422.01 (HIV-1)
# [24] = molecular target: HIV-1 Env of ZM249.1 (HIV-1)
# [25] = molecular target: HIV-1 Env of ZM53.12 (HIV-1)
# [26] = molecular target: HIV-1 Env of RHPA.7 (HIV-1)
# [27] = molecular target: HIV-1 Env of ZM135.10a (HIV-1)
# [28] = molecular target: HIV-1 Env of CAAN.A2 (HIV-1)
# [29] = molecular target: HIV-1 Env of UG037.8 (HIV-1)
# [30] = molecular target: HIV-1 Env of THRO.18 (HIV-1)
# [31] = molecular target: HIV-1 Env of PVO.04 (HIV-1)
# [32] = molecular target: HIV-1 Env of 96ZM651.02 (HIV-1)
# [33] = molecular target: HIV-1 Env of CAP256.PI (HIV-1)
# [34] = molecular target: HIV-1 Env of TRJO.58 (HIV-1)
# [35] = molecular target: HIV-1 Env of 6405.v4.c34 (HIV-1)
# [36] = molecular target: HIV-1 Env of BG505.w6m (HIV-1)
# [37] = molecular target: HIV-1 Env of RW020.2 (HIV-1)
# [38] = molecular target: HIV-1 Env of Q168.a2 (HIV-1)
# [39] = molecular target: HIV-1 Env of WITO.33 (HIV-1)
# [40] = molecular target: HIV-1 Env of TRO.11 (HIV-1)
# [41] = molecular target: HIV-1 Env of CM244.ec1 (HIV-1)
# [42] = molecular target: HIV-1 Env of MB201 (HIV-1)
# [43] = molecular target: HIV-1 Env of SC422.8 (HIV-1)
# [44] = molecular target: HIV-1 Env of CAP244.D3 (HIV-1)
# [45] = molecular target: HIV-1 Env of 0260.v5.c36 (HIV-1)
# [46] = molecular target: HIV-1 Env of CNE3 (HIV-1)
# [47] = molecular target: HIV-1 Env of KER2018.11 (HIV-1)
# [48] = molecular target: HIV-1 Env of Q461.e2 (HIV-1)
substance,measurement,setting,value
CAP256-VRC26.28 (antibody),"IC50 (neutralization, TZM-bl)",[1],> 50 µg/mL
same,"IC50 (neutralization, TZM-bl)",[2],> 50 µg/mL
same,"IC50 (neutralization, TZM-bl)",[3],> 50 µg/mL
same,"IC50 (neutralization, TZM-bl)",[4],< 0.0006 µg/mL
same,"IC50 (neutralization, TZM-bl)",[5],0.002 µg/mL
same,"IC50 (neutralization, TZM-bl)",[6],0.005 µg/mL
same,"IC50 (neutralization, TZM-bl)",[7],0.012 µg/mL
same,"IC50 (neutralization, TZM-bl)",[8],< 0.0006 µg/mL
same,"IC50 (neutralization, TZM-bl)",[9],> 50 µg/mL
same,"IC50 (neutralization, TZM-bl)",[10],0.008 µg/mL
same,"IC50 (neutralization, TZM-bl)",[11],0.76 µg/mL
same,"IC50 (neutralization, TZM-bl)",[12],> 50 µg/mL
same,"IC50 (neutralization, TZM-bl)",[13],0.171 µg/mL
same,"IC50 (neutralization, TZM-bl)",[14],> 50 µg/mL
same,"IC50 (neutralization, TZM-bl)",[15],> 50 µg/mL
same,"IC50 (neutralization, TZM-bl)",[16],> 50 µg/mL
same,"IC50 (neutralization, TZM-bl)",[17],0.016 µg/mL
same,"IC50 (neutralization, TZM-bl)",[18],0.779 µg/mL
same,"IC50 (neutralization, TZM-bl)",[19],0.193 µg/mL
same,"IC50 (neutralization, TZM-bl)",[20],0.012 µg/mL
same,"IC50 (neutralization, TZM-bl)",[21],29.4 µg/mL
same,"IC50 (neutralization, TZM-bl)",[22],6.85 µg/mL
same,"IC50 (neutralization, TZM-bl)",[23],0.075 µg/mL
same,"IC50 (neutralization, TZM-bl)",[24],0.082 µg/mL
same,"IC50 (neutralization, TZM-bl)",[25],< 0.0006 µg/mL
same,"IC50 (neutralization, TZM-bl)",[26],> 50 µg/mL
same,"IC50 (neutralization, TZM-bl)",[27],> 50 µg/mL
same,"IC50 (neutralization, TZM-bl)",[28],> 50 µg/mL
same,"IC50 (neutralization, TZM-bl)",[29],> 50 µg/mL
same,"IC50 (neutralization, TZM-bl)",[30],> 50 µg/mL
same,"IC50 (neutralization, TZM-bl)",[31],6 µg/mL
same,"IC50 (neutralization, TZM-bl)",[32],> 50 µg/mL
same,"IC50 (neutralization, TZM-bl)",[33],> 50 µg/mL
same,"IC50 (neutralization, TZM-bl)",[34],> 50 µg/mL
same,"IC50 (neutralization, TZM-bl)",[35],> 50 µg/mL
same,"IC50 (neutralization, TZM-bl)",[36],0.044 µg/mL
same,"IC50 (neutralization, TZM-bl)",[37],> 50 µg/mL
same,"IC50 (neutralization, TZM-bl)",[38],0.003 µg/mL
same,"IC50 (neutralization, TZM-bl)",[39],> 50 µg/mL
same,"IC50 (neutralization, TZM-bl)",[40],> 50 µg/mL
same,"IC50 (neutralization, TZM-bl)",[41],0.64 µg/mL
same,"IC50 (neutralization, TZM-bl)",[42],> 50 µg/mL
same,"IC50 (neutralization, TZM-bl)",[43],> 50 µg/mL
same,"IC50 (neutralization, TZM-bl)",[44],> 50 µg/mL
same,"IC50 (neutralization, TZM-bl)",[45],> 50 µg/mL
same,"IC50 (neutralization, TZM-bl)",[46],> 50 µg/mL
same,"IC50 (neutralization, TZM-bl)",[47],< 0.0006 µg/mL
same,"IC50 (neutralization, TZM-bl)",[48],1.59 µg/mL
CAP256-VRC26.29 (antibody),"IC50 (neutralization, TZM-bl)",[1],> 50 µg/mL
same,"IC50 (neutralization, TZM-bl)",[2],> 50 µg/mL
same,"IC50 (neutralization, TZM-bl)",[3],> 50 µg/mL
same,"IC50 (neutralization, TZM-bl)",[4],< 0.0006 µg/mL
same,"IC50 (neutralization, TZM-bl)",[5],0.003 µg/mL
same,"IC50 (neutralization, TZM-bl)",[6],0.023 µg/mL
same,"IC50 (neutralization, TZM-bl)",[7],0.019 µg/mL
same,"IC50 (neutralization, TZM-bl)",[8],< 0.0006 µg/mL
same,"IC50 (neutralization, TZM-bl)",[9],> 50 µg/mL
same,"IC50 (neutralization, TZM-bl)",[10],0.012 µg/mL
same,"IC50 (neutralization, TZM-bl)",[11],0.684 µg/mL
same,"IC50 (neutralization, TZM-bl)",[12],20.4 µg/mL
same,"IC50 (neutralization, TZM-bl)",[13],0.136 µg/mL
same,"IC50 (neutralization, TZM-bl)",[14],> 50 µg/mL
same,"IC50 (neutralization, TZM-bl)",[15],> 50 µg/mL
same,"IC50 (neutralization, TZM-bl)",[16],> 50 µg/mL
same,"IC50 (neutralization, TZM-bl)",[17],0.076 µg/mL
same,"IC50 (neutralization, TZM-bl)",[18],1.69 µg/mL
same,"IC50 (neutralization, TZM-bl)",[19],0.136 µg/mL
same,"IC50 (neutralization, TZM-bl)",[20],0.009 µg/mL
same,"IC50 (neutralization, TZM-bl)",[21],13.3 µg/mL
same,"IC50 (neutralization, TZM-bl)",[22],13.6 µg/mL
same,"IC50 (neutralization, TZM-bl)",[23],0.072 µg/mL
same,"IC50 (neutralization, TZM-bl)",[24],0.093 µg/mL
same,"IC50 (neutralization, TZM-bl)",[25],0.001 µg/mL
same,"IC50 (neutralization, TZM-bl)",[26],> 50 µg/mL
same,"IC50 (neutralization, TZM-bl)",[27],> 50 µg/mL
same,"IC50 (neutralization, TZM-bl)",[28],> 50 µg/mL
same,"IC50 (neutralization, TZM-bl)",[29],> 50 µg/mL
same,"IC50 (neutralization, TZM-bl)",[30],> 50 µg/mL
same,"IC50 (neutralization, TZM-bl)",[31],4 µg/mL
same,"IC50 (neutralization, TZM-bl)",[32],> 50 µg/mL
same,"IC50 (neutralization, TZM-bl)",[33],> 50 µg/mL
same,"IC50 (neutralization, TZM-bl)",[34],> 50 µg/mL
same,"IC50 (neutralization, TZM-bl)",[35],> 50 µg/mL
same,"IC50 (neutralization, TZM-bl)",[36],0.046 µg/mL
same,"IC50 (neutralization, TZM-bl)",[37],> 50 µg/mL
same,"IC50 (neutralization, TZM-bl)",[38],0.007 µg/mL
same,"IC50 (neutralization, TZM-bl)",[39],> 50 µg/mL
same,"IC50 (neutralization, TZM-bl)",[40],> 50 µg/mL
same,"IC50 (neutralization, TZM-bl)",[41],1.13 µg/mL
same,"IC50 (neutralization, TZM-bl)",[42],> 50 µg/mL
same,"IC50 (neutralization, TZM-bl)",[43],> 50 µg/mL
same,"IC50 (neutralization, TZM-bl)",[44],> 50 µg/mL
same,"IC50 (neutralization, TZM-bl)",[45],> 50 µg/mL
same,"IC50 (neutralization, TZM-bl)",[46],> 50 µg/mL
same,"IC50 (neutralization, TZM-bl)",[47],< 0.0006 µg/mL
same,"IC50 (neutralization, TZM-bl)",[48],2 µg/mL

# Reference: patent US20200199204A1
